# Results: US11103459B2, “Method of drug formulation based on increasing the affinity of active agents for crystalline microparticle surfaces” (MannKind Corporation, priority 2005, dated 2021)
# Like-named read-outs stand apart in the source and are kept apart here. Where no end group is shown, it is not given here.
# Legend:
# [1] = Active agent/FDKP microparticle adsorption studies (loading curves, HPLC); assay type: physicochemical; conditions: for binding of GLP-1 onto the FDKP microparticle surface: 100 mM TMAO
# Experimental: Aqueous samples at varying pH and at 20° C. (unless otherwise noted) were analyzed.
# The association of active agent with diketopiperazine (DKP) particles in suspension was evaluated by conducting adsorption studies.
# (§1) Unbound active agent in the supernatant was filtered off the suspension. […] The amount of active agent in both the supernatant and reconstituted fractions was quantitated by HPLC. A series of experiments were conducted in which conditions employed included use of additives such as salts, osmolytes, chaotropes and kosmotropes, and alcohols.
# The concentration of the chaotrope or kosmotrope in the samples was held constant at 100 mM and the pH varied from 2.0 to 5.0. Chaotropes or kosmotropes were selected from the following: NaSCN, CsCl, Na2SO4, (CH3)3N—HCl, […], Na Citrate, and NaClO4. The control indicates no chaotrope or kosmotrope were added.
# The concentration of the osmolyte (stabilizer) in the samples was held constant at 100 mM and the pH varied from about 2.0 to about 5.0. The osmolytes were selected from hexylene-glycol (Hex-Gly), trehalose, glycine, PEG, TMAO, mannitol and proline; the control indicates no osmolyte.
# In assessing the effect of modifiers on the active agent that allows for adsorption to the microparticle surface by a hydrophobic mechanism, the effect of alcohols were examined. […] The effect of each alcohol was observed over a pH range of 2.0 to 5.0. The alcohols used were trifluoroethanol (TFE) and hexafluoroisopropanol (HFIP). Each alcohol was evaluated at varying concentrations which include 5%, 10%, 15%, or 20% v/v.
# (§2) The amount of active agent detected in reconstituted microparticle-free control samples as a function of pH and NaCl concentration was assessed. The pH was controlled with a 20 mM potassium phosphate/20 mM potassium acetate mixture.
# [2] = in the presence of NaSCN, NaClO4, Na2SO4, NaNO3 and Na citrate; cited from earlier work
# [3] = Active agent detected in reconstituted microparticle-free control samples (precipitation, HPLC); assay type: physicochemical
# Experimental: as §1
# Similar observations were disclosed in U.S. Provisional Application Ser. No. 60/744,882.
# The effect of TFE was less pronounced, and at the lower pHs tested was detrimental. […] The mass ratios in FIGS. 3C-D reflect both adsorbed and precipitated active agent although precipitation is an increasingly minor component as the pH decreased toward 3.0.
# as §2
substance,measurement,setting,value
insulin [reference compound],affinity of insulin for the FDKP microparticle surface vs control,"[1]; 100 mM chaotropes and kosmotropes, pH 3.0, […] insulin, 5 mg/mL FDKP",improved the affinity
same,affinity of insulin for the FDKP microparticle surface vs control,"[1]; 100 mM chaotropes and kosmotropes, pH 4",this effect was not observed
same,adsorption of insulin to the FDKP microparticle surface vs control,"[1]; 100 mM chaotropes and kosmotropes, pH 5.0 (insulin precipitated)",interfered with the adsorption
same,affinity of insulin for the FDKP particle surface,"[1]; 100 mM osmolytes (PEG, glycine, trehalose, mannitol, Hex-Gly), pH 3.0 to 5.0",significantly improved affinity
same,binding (adsorption) of insulin onto FDKP particles,"[1]; 100-500 mM NaCl, pH about 2.5 to about 3.5",increased binding
same,adsorption of insulin to the FDKP particle,"[1]; all NaCl concentrations tested, pH about 4.0 to about 5.0",reduction in the adsorption
glucagon-like peptide 1 [GLP-1],affinity for adsorption of GLP-1 onto FDKP particle surface,"[1]; 100 mM PEG and proline, pH 2.0 to 4.0",improved the affinity
same,binding of GLP-1 onto the FDKP microparticle surface,[1]; pH 2.0,more effective than PEG or proline
same,binding of GLP-1 onto the FDKP microparticle surface,[1]; pH 3.0 and above,modestly detrimental
same,affinity of GLP-1 for the FDKP microparticles,"[1]; 100 mM chaotropes and kosmotropes, pH 2.0-4.0, greater effect at lower pH",improved affinity
same,affinity of GLP-1 for the microparticle surface,"[1]; HFIP and TFE at 5% and 10%, pH 2.0-5.0",improved affinity
same,binding of GLP-1 to FDKP particles,"[1]; NaCl, pH 4.0 and above",reduction in binding
same,effect of TFE on GLP-1 affinity for the microparticle surface,"[1]; TFE, lower pHs tested",detrimental
same,binding (adsorption) of GLP-1 to FDKP particles,"[1]; all NaCl concentrations tested, pH about 2.0 to about 3.5",enhanced binding
same,GLP-1 peptide detected in reconstituted microparticle-free control samples,[2],0.02 to 0.04 mg/mL
same,GLP-1 peptide detected in reconstituted microparticle-free control samples,"[3]; 10% HFIP and TFE, pH 4.0",0.13 to 0.19 mg/mL
same,GLP-1 peptide detected in reconstituted microparticle-free control samples,"[3]; 10% HFIP or TFE, pH 2.0",no GLP-1 was detected
"ghrelin (GSSFLSPEHQRVQQRKESKKPPAKLQPR; ends and bridges not checked; UniProt Q9UBU3 24-51, looked up)",affinity of ghrelin for the microparticle surface vs control,"[1]; 100 mM mannitol, PEG, glycine, Hex-Gly, trehalose, pH about 4.0 to 5.0",greater affinity
same,affinity of ghrelin for the microparticle surface (mass ratio of ghrelin to FDKP particles),"[1]; HFIP and TFE at 5%, 10%, 15%, 20% v/v, pH 2.0-4.0",greatly improved affinity
parathyroid hormone [PTH],binding of PTH to the FDKP particles,"[1]; 250 to 1000 mM NaCl, pH about 2.0 to about 3.5",enhanced binding
same,binding of PTH to the microparticle,"[1]; in the presence of salt, pH about 3.5 to about 5.0",decreased
same,affinity of PTH for the FDKP microparticle surface,"[1]; strong chaotropes NaSCN and NaClO4, pH 4.0 to about 4.5",greater
